The target in one assay is T1, LILRB4 (human, UniProt Q8NHJ6).
T1 construct: not the cell-surface form of MOLECULES; also called LILRB4 protein of the ELISA and Octet specificity tests
In words: ELISA. In general terms: In an ELISA, binding on a coated surface is turned into a signal by an enzyme label.

The target of the next assay is T2, LILRA2 (human, UniProt Q8N149).
T2 construct: not the cell-surface form of MOLECULES; also called LILRA2 protein of the ELISA and Octet specificity tests
In words: ELISA.

Another assay deals with T3, LILRB5.
T3 construct: not the cell-surface form of MOLECULES; also called LILRB5 protein of the ELISA and Octet specificity tests; not shown: Fc or tag of the recombinant LILRB5 construct, if any
Description: ELISA.

In another assay the target is T4, LILRA1 (human, UniProt O75019).
T4 construct: not the cell-surface form of MOLECULES; also called LILRA1 protein of the ELISA and Octet specificity tests
Description: ELISA.

A further assay concerns the target T5, LILRA4 (human, UniProt P59901).
T5 construct: not the cell-surface form of MOLECULES; also called LILRA4 protein of the ELISA and Octet specificity tests
Description: ELISA.

The next assay addresses T6, LILRA3 (human, UniProt Q8N6C8).
T6 construct: not the cell-surface form of MOLECULES; also called LILRA3 protein of the ELISA and Octet specificity tests
Description: ELISA.

Assay [1] addresses T7, LILRB1 expressed on cell surface (human, UniProt Q8NHL6 24-650).
T7 construct: One entry is used for LILRB1 on reporter cells and on NK cells; also called LILRB1 NFAT-GFP reporter cell; LILRB1 reporter cells
Description: flow cytometry on 2B4 cells expressing the LILR, PE.

A further assay concerns the target T8, LILRB2 on reporter cells (UniProt Q8N423 22-597).
T8 construct: whole, on cells; The construct is not described
The assay is described as above.

For a further assay, the target named is T9, LILRA6 on reporter cells (UniProt Q6PI73 24-481).
T9 construct: whole, on cells
The assay is described as above.

A further assay addresses T10, LILRA5 on reporter cells (UniProt A6NI73 42-299).
T10 construct: whole, on cells
The description is as above.

Another assay has as its target T11, LILRA1 on reporter cells (UniProt O75019 17-489, limits assumed).
T11 construct: whole, on cells
The description is as above.

The values that follow come from US12723078 (University of Texas, dated 2026).

T8 sequence (Q8N423 22-597): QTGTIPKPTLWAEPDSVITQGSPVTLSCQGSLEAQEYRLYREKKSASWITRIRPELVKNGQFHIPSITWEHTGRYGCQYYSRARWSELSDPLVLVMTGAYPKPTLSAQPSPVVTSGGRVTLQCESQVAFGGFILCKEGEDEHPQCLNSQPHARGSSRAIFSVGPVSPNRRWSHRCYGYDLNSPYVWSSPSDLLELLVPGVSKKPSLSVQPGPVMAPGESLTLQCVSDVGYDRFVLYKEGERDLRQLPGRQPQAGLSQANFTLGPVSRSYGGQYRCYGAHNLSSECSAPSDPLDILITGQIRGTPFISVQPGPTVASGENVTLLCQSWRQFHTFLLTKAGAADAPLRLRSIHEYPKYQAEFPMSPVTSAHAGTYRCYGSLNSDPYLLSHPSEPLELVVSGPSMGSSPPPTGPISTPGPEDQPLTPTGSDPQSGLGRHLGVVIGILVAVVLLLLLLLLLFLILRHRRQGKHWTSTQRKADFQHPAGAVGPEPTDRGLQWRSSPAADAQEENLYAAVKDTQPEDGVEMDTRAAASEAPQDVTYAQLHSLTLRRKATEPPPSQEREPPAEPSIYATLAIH
T6 sequence (Q8N6C8 24-439 limits assumed): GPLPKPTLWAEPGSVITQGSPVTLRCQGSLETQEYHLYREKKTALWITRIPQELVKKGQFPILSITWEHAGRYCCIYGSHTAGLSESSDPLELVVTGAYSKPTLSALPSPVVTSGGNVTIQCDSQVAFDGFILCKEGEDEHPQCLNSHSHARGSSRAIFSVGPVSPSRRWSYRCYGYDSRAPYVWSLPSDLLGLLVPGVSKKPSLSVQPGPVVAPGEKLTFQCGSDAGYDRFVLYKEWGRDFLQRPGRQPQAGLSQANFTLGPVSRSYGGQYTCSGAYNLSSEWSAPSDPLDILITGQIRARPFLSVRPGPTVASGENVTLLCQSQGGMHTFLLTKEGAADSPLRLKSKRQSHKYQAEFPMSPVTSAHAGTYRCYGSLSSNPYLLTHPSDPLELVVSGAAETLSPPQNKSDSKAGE
T9 sequence (Q6PI73 24-481): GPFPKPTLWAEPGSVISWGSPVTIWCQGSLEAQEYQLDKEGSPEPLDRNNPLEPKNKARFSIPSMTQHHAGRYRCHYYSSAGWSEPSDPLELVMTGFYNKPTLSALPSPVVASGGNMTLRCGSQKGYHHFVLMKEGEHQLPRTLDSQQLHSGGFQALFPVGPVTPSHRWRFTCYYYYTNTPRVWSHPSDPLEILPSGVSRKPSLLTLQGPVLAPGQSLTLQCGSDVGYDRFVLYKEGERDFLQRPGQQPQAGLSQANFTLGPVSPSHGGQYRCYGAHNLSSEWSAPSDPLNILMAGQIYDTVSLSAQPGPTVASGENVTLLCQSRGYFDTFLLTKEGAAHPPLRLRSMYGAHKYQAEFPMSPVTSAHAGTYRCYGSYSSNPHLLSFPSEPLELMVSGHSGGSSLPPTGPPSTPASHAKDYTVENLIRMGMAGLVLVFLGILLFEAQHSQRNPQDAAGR
T3 sequence (chain, as listed by the source limits assumed): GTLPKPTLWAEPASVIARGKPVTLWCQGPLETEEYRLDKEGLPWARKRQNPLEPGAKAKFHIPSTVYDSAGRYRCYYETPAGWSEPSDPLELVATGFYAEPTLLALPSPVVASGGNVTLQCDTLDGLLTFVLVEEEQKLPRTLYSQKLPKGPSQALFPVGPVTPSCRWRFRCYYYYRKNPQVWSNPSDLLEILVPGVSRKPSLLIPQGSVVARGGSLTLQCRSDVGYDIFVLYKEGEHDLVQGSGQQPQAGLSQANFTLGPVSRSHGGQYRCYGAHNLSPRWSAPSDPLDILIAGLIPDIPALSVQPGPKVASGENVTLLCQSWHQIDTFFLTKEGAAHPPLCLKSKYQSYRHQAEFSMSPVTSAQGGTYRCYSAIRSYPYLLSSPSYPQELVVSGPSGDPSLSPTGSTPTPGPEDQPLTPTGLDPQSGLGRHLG
T10 sequence (A6NI73 42-299): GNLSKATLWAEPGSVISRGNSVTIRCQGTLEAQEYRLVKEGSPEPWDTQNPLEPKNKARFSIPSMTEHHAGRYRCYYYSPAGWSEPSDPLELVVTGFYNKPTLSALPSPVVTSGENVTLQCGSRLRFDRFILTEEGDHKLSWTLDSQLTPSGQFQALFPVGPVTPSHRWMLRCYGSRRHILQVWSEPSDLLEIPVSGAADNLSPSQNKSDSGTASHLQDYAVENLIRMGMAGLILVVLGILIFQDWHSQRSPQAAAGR
T2 sequence (Q8N149 24-449 limits assumed): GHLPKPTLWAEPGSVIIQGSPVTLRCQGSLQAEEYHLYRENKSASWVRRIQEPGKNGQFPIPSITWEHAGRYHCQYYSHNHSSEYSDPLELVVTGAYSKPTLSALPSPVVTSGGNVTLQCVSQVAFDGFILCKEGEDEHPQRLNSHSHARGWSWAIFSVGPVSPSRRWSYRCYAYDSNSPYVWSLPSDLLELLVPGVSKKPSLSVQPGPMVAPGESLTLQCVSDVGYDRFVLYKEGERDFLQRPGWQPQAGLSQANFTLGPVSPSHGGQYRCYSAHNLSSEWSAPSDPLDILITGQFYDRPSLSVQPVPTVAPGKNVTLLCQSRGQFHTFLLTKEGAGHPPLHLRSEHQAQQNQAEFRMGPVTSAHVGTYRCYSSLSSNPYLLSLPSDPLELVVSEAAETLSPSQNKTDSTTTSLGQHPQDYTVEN
T5 sequence (P59901 24-446 limits assumed): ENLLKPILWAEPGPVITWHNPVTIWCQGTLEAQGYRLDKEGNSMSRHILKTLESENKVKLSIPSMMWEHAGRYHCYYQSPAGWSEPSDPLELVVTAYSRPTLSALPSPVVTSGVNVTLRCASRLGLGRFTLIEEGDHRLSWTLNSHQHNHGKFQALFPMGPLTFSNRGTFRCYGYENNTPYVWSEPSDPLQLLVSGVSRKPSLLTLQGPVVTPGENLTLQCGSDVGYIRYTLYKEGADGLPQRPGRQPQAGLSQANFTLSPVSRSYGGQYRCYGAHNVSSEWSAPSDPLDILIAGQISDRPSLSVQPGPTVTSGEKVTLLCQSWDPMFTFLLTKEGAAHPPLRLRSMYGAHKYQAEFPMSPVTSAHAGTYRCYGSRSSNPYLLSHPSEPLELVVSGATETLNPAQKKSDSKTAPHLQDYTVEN
T11 sequence (O75019 17-489 limits assumed): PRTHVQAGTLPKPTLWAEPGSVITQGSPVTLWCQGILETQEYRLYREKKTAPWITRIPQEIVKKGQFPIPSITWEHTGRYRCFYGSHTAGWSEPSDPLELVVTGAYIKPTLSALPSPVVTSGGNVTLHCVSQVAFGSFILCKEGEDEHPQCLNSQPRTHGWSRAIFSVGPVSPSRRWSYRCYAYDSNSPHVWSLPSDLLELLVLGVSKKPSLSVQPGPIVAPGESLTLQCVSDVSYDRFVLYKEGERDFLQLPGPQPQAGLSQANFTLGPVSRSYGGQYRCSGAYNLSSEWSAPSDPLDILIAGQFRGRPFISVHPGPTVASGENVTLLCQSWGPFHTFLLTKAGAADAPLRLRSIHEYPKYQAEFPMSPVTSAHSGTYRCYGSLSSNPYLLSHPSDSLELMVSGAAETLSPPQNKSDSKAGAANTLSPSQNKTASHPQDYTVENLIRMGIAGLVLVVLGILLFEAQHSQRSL
T7 sequence (Q8NHL6 24-650 limits assumed): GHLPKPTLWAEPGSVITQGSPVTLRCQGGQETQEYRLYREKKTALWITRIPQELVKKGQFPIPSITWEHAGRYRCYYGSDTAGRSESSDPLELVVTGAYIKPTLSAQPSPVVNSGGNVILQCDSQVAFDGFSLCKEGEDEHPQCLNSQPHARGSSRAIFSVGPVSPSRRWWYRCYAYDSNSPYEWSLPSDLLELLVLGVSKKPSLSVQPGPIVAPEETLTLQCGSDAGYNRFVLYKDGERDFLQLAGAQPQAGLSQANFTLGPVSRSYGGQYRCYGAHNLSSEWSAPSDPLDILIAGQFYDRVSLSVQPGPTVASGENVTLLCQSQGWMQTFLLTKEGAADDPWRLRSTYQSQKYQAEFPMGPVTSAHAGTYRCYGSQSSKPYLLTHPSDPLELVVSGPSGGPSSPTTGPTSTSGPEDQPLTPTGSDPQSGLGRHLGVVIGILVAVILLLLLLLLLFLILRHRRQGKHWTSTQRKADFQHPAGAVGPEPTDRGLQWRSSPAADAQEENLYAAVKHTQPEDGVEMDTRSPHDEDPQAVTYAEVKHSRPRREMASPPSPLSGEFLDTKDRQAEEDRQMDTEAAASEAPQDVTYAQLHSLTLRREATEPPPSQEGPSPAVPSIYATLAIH
T4 sequence (O75019 17-461 limits assumed): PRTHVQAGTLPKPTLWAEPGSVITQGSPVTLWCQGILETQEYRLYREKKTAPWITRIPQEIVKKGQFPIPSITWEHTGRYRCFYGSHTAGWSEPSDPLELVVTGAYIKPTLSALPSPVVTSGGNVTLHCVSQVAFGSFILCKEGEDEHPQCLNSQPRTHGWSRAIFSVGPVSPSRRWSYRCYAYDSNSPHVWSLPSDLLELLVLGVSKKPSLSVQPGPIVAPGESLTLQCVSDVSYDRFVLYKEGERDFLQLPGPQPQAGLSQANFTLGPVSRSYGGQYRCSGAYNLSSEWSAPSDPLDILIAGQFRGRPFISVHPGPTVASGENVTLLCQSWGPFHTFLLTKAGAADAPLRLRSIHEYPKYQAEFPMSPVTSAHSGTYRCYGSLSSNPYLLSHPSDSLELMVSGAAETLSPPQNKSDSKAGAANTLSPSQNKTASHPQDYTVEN

B1: B1-176 rabbit antibody (antibody, V domains shown)
VH: QSLEESEGGLVKPGGTLTLTCTASGFSFSSSYCMCWVRQAPGKGLELIACIYTDSSGATYYASWAKGRFTISKSSSTTITLQMTSLTAADTATYFCARGWDYEDPGYTDTTYFSLWGPGTLVTVSS
VL: ELDLTQTPSSVEAAVGGTVTIKCQASQTIYTNLAWYQQKPGQPPNLLIYAASTLASGVSSRFKGSGSGTEFTLTISDLECADAATYYCQSYYGSSTTGNGFGGGTEVEIK
notes: Full-length rabbit IgG, kappa; Variable genes were cloned into a rabbit IgG expression vector and expressed in Expi293F cells
Consider B1, for which the binding result with LILRB4, with LILRA2, with LILRB5, with LILRA1, with LILRA4 and with LILRA3 was “no binding (tested: 10^3.0 ng/mL (1000 ng/mL))” each time. The “percent of cells in the gate” value in assay [1] was determined as 99.2%; in the assay with LILRB2 on reporter cells, 0.676%; with LILRA6 on reporter cells, 0.123%; in the assay with LILRA5 on reporter cells, 0.101%; with LILRA1 on reporter cells it was 0.124%.
